Source: PMC5021340

Biological target: Mig1 (Xanthophyllomyces dendrorhous) (UniProt A0A1C9UL02)
Assay: EMSA
Settings: 20 mM HEPES pH 7.9, 50 mM KCl, 1 mM DTT, 0.1 mM EDTA, 5% glycerol (+2.5%), 200 ug/ml BSA, 50 ng/ul poly(dI-dC), 0.05% NP-40, 20 fmol DNA, 10 ug Mig1 in 20 ul …

Sequence of Mig1 (Xanthophyllomyces dendrorhous) (A0A1C9UL02 entry or part of it): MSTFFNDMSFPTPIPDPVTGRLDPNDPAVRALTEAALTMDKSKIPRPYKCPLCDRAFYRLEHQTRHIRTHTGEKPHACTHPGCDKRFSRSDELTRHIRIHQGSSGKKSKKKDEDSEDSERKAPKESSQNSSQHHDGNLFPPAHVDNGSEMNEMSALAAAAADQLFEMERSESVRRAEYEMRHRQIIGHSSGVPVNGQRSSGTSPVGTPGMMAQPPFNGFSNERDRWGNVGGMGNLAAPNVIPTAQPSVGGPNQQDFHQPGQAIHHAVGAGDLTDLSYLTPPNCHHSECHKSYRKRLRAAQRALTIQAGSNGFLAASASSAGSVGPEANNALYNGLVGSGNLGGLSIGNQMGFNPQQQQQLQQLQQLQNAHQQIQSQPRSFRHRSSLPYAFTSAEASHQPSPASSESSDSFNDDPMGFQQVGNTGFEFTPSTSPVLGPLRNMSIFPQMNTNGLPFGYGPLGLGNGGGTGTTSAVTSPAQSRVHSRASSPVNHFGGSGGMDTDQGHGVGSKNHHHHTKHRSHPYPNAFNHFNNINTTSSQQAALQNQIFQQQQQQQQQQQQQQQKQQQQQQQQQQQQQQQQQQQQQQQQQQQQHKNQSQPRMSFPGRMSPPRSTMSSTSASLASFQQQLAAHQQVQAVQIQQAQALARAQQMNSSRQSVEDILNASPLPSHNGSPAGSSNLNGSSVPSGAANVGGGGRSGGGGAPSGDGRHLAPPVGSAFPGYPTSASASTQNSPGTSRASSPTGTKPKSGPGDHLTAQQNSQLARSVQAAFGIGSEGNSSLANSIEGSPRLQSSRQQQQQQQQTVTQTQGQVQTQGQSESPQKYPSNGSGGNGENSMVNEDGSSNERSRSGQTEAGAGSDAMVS

## GAAGATGATGCGGCGGCAACTGGTTCTGGGCTGGGGAACACCCTATTCGACCGGTTGAATGAGTCACAATCGGCCGGCAGCCCTGCTGCAGGCACCGGCGCAAGTGGCTCCGGACCGAAGCCTCGCCAGCAGTTGATCAAGCGAACCAAGCCGAACAATCCTGGCGCGCCTGGAGGAGCGGGAGCGGGAGGAGCAGCAGGTGATGCATC (double strand) [crtS promoter boxes C-D 209 bp]
  binding: binds
